T1: MALT1 (wild type, Flag- and Avi-tagged bio-construct) (human, UniProt Q9UDY8 1-824, Avi-tag biotinylated in vivo by co-expressed BirA)
T1 construct: also called paracaspase; bio-IP purified MALT1
T1 sequence (looked up): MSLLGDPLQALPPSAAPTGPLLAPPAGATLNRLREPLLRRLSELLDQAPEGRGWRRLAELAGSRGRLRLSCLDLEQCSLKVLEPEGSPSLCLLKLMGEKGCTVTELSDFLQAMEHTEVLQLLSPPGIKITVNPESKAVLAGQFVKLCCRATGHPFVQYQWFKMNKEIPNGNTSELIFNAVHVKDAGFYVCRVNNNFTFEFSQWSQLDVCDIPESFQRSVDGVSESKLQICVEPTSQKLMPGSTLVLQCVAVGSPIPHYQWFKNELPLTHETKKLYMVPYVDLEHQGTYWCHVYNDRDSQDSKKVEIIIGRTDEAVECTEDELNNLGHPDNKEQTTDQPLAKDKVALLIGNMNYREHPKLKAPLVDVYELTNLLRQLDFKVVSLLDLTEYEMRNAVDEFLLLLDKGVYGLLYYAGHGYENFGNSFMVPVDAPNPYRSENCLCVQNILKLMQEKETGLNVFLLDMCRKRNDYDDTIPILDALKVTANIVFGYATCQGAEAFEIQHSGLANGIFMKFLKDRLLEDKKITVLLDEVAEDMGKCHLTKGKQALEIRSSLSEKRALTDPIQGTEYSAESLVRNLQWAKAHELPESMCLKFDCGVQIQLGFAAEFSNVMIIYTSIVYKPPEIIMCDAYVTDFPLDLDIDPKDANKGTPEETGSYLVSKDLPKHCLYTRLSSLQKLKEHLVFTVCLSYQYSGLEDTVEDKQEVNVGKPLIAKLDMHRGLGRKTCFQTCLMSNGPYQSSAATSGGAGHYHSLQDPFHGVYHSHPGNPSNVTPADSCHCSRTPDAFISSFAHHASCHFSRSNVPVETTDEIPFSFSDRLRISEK

T2: p76 fragment of MALT1 (Avi-tagged expression construct) (human, UniProt Q9UDY8 150-824, Avi-tag biotinylated in vivo by co-expressed BirA)
T2 construct: domain: p76 cleavage fragment; Lacks the N-terminal death domain; also called MALT1 p76; 76 kDa C-terminal fragment
T2 sequence (looked up): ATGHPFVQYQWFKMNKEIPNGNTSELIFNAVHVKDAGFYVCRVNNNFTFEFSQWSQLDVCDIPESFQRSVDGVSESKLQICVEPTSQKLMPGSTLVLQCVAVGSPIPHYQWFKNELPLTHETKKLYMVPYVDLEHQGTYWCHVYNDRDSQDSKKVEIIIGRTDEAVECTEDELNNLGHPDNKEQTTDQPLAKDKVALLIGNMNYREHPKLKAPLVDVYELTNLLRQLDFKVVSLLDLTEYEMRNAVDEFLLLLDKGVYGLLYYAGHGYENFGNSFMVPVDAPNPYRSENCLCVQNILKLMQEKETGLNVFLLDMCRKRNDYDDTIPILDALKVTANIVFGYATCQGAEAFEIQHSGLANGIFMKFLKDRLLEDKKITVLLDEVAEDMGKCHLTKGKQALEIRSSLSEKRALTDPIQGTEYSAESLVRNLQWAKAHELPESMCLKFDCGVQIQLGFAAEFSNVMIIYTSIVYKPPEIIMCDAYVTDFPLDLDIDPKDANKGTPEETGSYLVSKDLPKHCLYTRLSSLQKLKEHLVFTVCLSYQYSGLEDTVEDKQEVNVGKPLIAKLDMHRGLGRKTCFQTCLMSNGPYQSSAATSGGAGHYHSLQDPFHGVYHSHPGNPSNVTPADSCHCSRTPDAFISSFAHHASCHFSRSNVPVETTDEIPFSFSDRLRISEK

B1: TRAF6 (other, UniProt Q9Y4K3 1-522, looked up)
chain: MSLLNCENSCGSSQSESDCCVAMASSCSAVTKDDSVGGTASTGNLSSSFMEEIQGYDVEFDPPLESKYECPICLMALREAVQTPCGHRFCKACIIKSIRDAGHKCPVDNEILLENQLFPDNFAKREILSLMVKCPNEGCLHKMELRHLEDHQAHCEFALMDCPQCQRPFQKFHINIHILKDCPRRQVSCDNCAASMAFEDKEIHDQNCPLANVICEYCNTILIREQMPNHYDLDCPTAPIPCTFSTFGCHEKMQRNHLARHLQENTQSHMRMLAQAVHSLSVIPDSGYISEVRNFQETIHQLEGRLVRQDHQIRELTAKMETQSMYVSELKRTIRTLEDKVAEIEAQQCNGIYIWKIGNFGMHLKCQEEEKPVVIHSPGFYTGKPGYKLCMRLHLQLPTAQRCANYISLFVHTMQGEYDSHLPWPFQGTIRLTILDQSEAPVRQNHEEIMDAKPELLAFQRPTIPRNPKGFGYVTFMHLEALRQRTFIKDDTLLVRCEVSTRFDMGSLRREGFQPRSTDAGV
notes: Co-precipitated from lysates of human cell lines
B2: BCL10 (other, UniProt O95999 1-233, looked up)
chain: MEPTAPSLTEEDLTEVKKDALENLRVYLCEKIIAERHFDHLRAKKILSREDTEEISCRTSSRKRAGKLLDYLQENPKGLDTLVESIRREKTQNFLIQKITDEVLKLRNIKLEHLKGLKCSSCEPFPDGATNNLSRSNSDESNFSEKLRASTVMYHPEGESSTTPFFSTNSSLNLPVLEVGRTENTIFSSTTLPRPGDPGAPPLPPDLQLEEEGTCANSSEMFLPLRSRTVSRQ
notes: as for B1

Experiments:
[1] = target: T1, MALT1 (wild type, Flag- and Avi-tagged …); test: bio-IP from HEK293T cells, anti-TRAF6 immunoblot
Source text: (§1) FIG. 5: p76 activates NFκB via TRAF6. […] Panel B) TRAF6 mediates NFκB signaling by p76. Top: NFκB-reporter assays of HEK293T cells transiently expressing MALT1, p76 and mutants or MALT1-C. Bottom: MALT1, p76 or MALT1-C, transiently expressed in HEK293T cells, were purified via bio-IPs and immunoblotted with anti-MALT1 (to show equal expression), anti-TRAF6 and anti-BCL10. Panel C) p76 induces polyubiquitination of IKKγ. Immunoblot analysis of bio-IP and IKKγ-IP of 293T cells transfected with pcD-F-IKKγ and pcd-HA-Ub in combination with indicated Avi-tagged MALT1 constructs. Panel D) BCL10 is not involved in NFκB signaling by p76. NFκB reporter assays of HEK-293T cells transfected with siRNA duplexes against MALT1, BCL10 or GFP (as control) followed by transient transfection with p76. The expression levels were determined by immunoblot with anti-MALT1 and anti-BCL10. NFκB-dependent luciferase activity […] is shown as fold induction of vector-transfected cells and represents the mean+/−S.D. of three independent experiments.
NFκB activation by MALT1 requires TRAF6 binding via two distinct sites (19), which are both present in the p76 cleavage fragment. Mutation of one TRAF6 binding site, either E313A/E316A (T6Ig-m) or E806A (T6C-m), abolished the potential of p76 to activate NFκB signaling in 293T cells (FIG. 5, Panel B). […] Furthermore, NFκB activation by p76 in 293T cells was associated with increased polyubiquitination of IKKγ (FIG. 5, Panel C).

[2] = target: T2, p76 fragment of MALT1 (Avi-tagged …); test: bio-IP from HEK293T cells, anti-BCL10 immunoblot
Source text: as §1

binding result [1] | binding result [2] | Binder
binds |  | B1
 | no binding | B2

From patent publication US8309523 (VIB VZW, dated 2012)
